Data on 17 molecules can be found in US20230235004A1 (published 2023).

Changes are numbered by the printed parent chain.

Sequences and labels used below:
T1: mouse MAdCAM expressed on cells (mouse, UniProt Q61826 22-405)
T1 construct: whole, on cells
T1 sequence (looked up): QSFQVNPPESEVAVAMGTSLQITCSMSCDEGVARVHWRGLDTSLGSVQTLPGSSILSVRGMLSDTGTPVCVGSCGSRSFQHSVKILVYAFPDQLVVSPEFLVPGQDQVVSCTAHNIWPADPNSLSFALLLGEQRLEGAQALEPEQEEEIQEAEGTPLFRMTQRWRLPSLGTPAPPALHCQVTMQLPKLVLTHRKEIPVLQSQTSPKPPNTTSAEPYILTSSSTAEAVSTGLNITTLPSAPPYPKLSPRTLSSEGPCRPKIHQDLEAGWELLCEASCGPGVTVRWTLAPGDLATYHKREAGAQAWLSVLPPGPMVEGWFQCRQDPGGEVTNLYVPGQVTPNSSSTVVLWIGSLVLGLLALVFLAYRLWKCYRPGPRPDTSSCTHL

T2: human MAdCAM expressed on cells (human, UniProt Q13477 19-382)
T2 construct: whole, on cells
T2 sequence (looked up): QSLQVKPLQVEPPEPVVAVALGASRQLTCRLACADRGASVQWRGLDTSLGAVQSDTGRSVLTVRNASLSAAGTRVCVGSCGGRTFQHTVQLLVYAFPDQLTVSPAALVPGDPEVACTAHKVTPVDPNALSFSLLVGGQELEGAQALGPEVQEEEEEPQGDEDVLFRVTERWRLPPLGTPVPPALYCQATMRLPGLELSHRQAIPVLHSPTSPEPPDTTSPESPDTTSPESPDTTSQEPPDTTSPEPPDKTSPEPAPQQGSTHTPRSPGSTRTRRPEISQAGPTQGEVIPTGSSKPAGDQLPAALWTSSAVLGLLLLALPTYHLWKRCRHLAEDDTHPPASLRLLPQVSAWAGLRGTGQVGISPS

B1: MAdCAM antibody Table 1 clone 39 (scFv)
scFv: QVQLVQSGAEVKKPGASVKVSCKASGYTFTSYYMHWVRQAPGQGLEWMGWMNPNSGNTGYAQKFQGRVTMTRDTSTSTVYMELSSLRSEDTAVYYCARDLGYYDSSGYFGAFDIWGQGTTVTVSSGGGGSGGGGSGGGGSGGGGSDIQMTQSPSSLSASVGDRVTITCQSSEDISSSLNWYQQKPGKAPKLLIYAASSLQIGVPSRFSGSGSGTDFTLTISSLQPEDFATYYCQQTYSTPYTFGQGTKVEIK
B2: MAdCAM antibody Table 1 clone 33 (scFv)
scFv: QVQLVQSGAEVKKPGASVKVSCKASGYTFTSYGISWVRQAPGQGLEWMGWMHPKSGDTGLTQKFQGRVTMTRDTSTSTVYMELSSLRSEDTAVYYCARDTPYYYYGMDVWGQGTTVTVSSGGGGSGGGGSGGGGSGGGGSDIQMTQSPSSLSASVGDRVTITCRASQSISSWLAWYQQKPGKAPKLLIYAASSLQSGVPSRFSGSGSGTDFTLTISSLQPEDFATYYCQQSYSVPITFGQGTKVEIK
B3: MAdCAM antibody Table 1 clone 31 (scFv)
scFv: QVQLVQSGAEVKKPGASVKVSCKASGYTFTSYYMHWVRQAPGQGLEWMGIINPSGGSTSYAQKFQGRVTMTRDTSTSTVYMELSSLRSEDTAVYYCARDTGYSYGRYYYYGMDVWGQGTLVTVSSGGGGSGGGGSGGGGSGGGGSDIQMTQSPSSLSASVGDRVTITCRASQSIGRWLAWYQQKPGKAPKLLIYDASNLQSGVPSRFSGSGSGTDFTLTISSLQPEDFATYYCQQSYSIPITFGQGTKVEIK
B4: MAdCAM antibody Table 1 clone 36 (scFv)
scFv: B3 scFv with S31G, Y32H, L120T, Q245G
B5: MAdCAM antibody Table 1 clone 43 (scFv)
scFv: EVQLLESGGGLVQPGGSLRLSCAASGFTFDDFAMHWVRQAPGKGLEWVSGISGNGDSRYYADSVKGRFTISRDNSKNTLYLQMNSLRAEDTAVYYCARDASYGGNYGMDVWGQGTTVTVSSGGGGSGGGGSGGGGSGGGGSDIQMTQSPSSLSASVGDRVTITCQASQDIRNYLNWYQQKPGKAPKLLIYKASTLESGVPSRFSGSGSGTDFTLTISSLQPEDFATYYCQQANSFPLTFGPGTKVDIK
B6: MAdCAM antibody Table 1 clone 56 (scFv)
scFv: EVQLLESGGGLVQPGGSLRLSCAASGFTFDDYAMHWVRQAPGKGLEWVSAISGGGEDTYYADSVKGRFTISRDNSKNTLYLQMNSLRAEDTAVYYCARDASYGGNYGMDVWGQGTTVTVSSGGGGSGGGGSGGGGSGGGGSDIQMTQSPSSLSASVGDRVTITCQASQDIRNYLNWYQQKPGKAPKLLIYKASSLESGVPSRFSGSGSGTDFTLTISSLQPEDFATYYCQQANSYPVTFGGGTKVEIK
B7: MAdCAM antibody Table 1 clone 37 (scFv)
scFv: QVQLVQSGAEVKKPGASVKVSCKASGYTFSKHFVHWVRQAPGQGLEWMGWMNPNSGNSGYAQKFQGRVTMTRDTSTSTVYMELSSLRSEDTAVYYCARGEGGYYYYGMDVWGQGTLVTVSSGGGGSGGGGSGGGGSGGGGSDIQMTQSPSSLSASVGDRVTITCRASQSISSWLAWYQQKPGKAPKLLIYAASTLQSGVPSRFSGSGSGTDFTLTISSLQPEDFATYYCQQSYSTPWTFGQGTKVEIK
B8: MAdCAM antibody Table 1 clone 40 (scFv)
scFv: QVQLVQSGAEVKKPGASVKVSCKASGYTFTSYGISWVRQAPGQGLEWMGIINPRGGSTIFAQKFQGRVTMTRDTSTSTVYMELSSLRSEDTAVYYCARGTRSSGWYGWFDPWGQGTLVTVSSGGGGSGGGGSGGGGSGGGGSDIQMTQSPSSLSASVGDRVTITCRASQGIGNWLAWYQQKPGKAPKLLIYAASNLETGVPSRFSGSGSGTDFTLTISSLQPEDFATYYCQQIHSYPLTFGGGTKVEIK
B9: MAdCAM antibody Table 1 clone 47 (scFv)
scFv: EVQLLESGGGLVQPGGSLRLSCAASGFSFSDYGMHWVRQAPGKGLEWVSAISGSGGSTYYADSVKGRFTISRDNSKNTLYLQMNSLRAEDTAVYYCARDGGWQPAAILDYWGQGTLVTVSSGGGGSGGGGSGGGGSGGGGSDIQMTQSPSSLSASVGDRVTITCRASQGISNNLNWYQQKPGKAPKLLIYDASNLETGVPSRFSGSGSGTDFTLTISSLQPEDFATYYCQQSYSTPLTFGGGTKVEIK
B10: MAdCAM antibody Table 1 clone 45 (scFv)
scFv: EVQLLESGGGLVQPGGSLRLSCAASGFSVSSNYMSWVRQAPGKGLEWVAGISYDGSSKPYADSVKGRFTISRDNSKNTLYLQMNSLRAEDTAVYYCARSRGIAARPLQHWGQGTLVTVSSGGGGSGGGGSGGGGSGGGGSDIVMTQSPDSLAVSLGERATINCKSSQSVLYSSNNKNYLAWYQQKPGQPPKLLIYWASTRQSGVPDRFSGSGSGTDFTLTISSLQAEDVAVYYCHQYYGHPPTFGGGTKVEIK
B11: MAdCAM antibody Table 1 clone 46 (scFv)
scFv: B10 scFv with W196Q
B12: MAdCAM antibody Table 1 clone 44 (scFv)
scFv: EVQLVESGGGLVKPGGSLRLSCAASGFTFSSYWMSWVRQAPGKGLEWVSAIGTGGGTYYAAPVKGRFTISRDDSKNTLYLQMNSLKTEDTAVYYCAREWLVPYYGMDVWGQGTTVTVSSGGGGSGGGGSGGGGSGGGGSDIQMTQSPSSLSASVGDRVTITCRASQSISRWLAWYQQKPGKAPKLLIYGASNLQSGVPSRFSGSGSGTDFTLTISSLQPEDFATYYCQQSYSTPWTFGQGTKVEIK
B13: MAdCAM antibody Table 1 clone 42 (scFv)
scFv: QVQLVQSGAEVKKPGSSVKVSCKASGGTLSRYGVSWVRQAPGQGLEWMGGIIPIFGTTNYAQKFQGRVTITADESTSTAYMELSSLRSEDTAVYYCARDRVYYDSSGYPTWYFDLWGRGTLVTVSSGGGGSGGGGSGGGGSGGGGSEIVMTQSPATLSVSPGERATLSCRASQSVSSSYLAWYQQKPGQAPRLLIYGASTRATGIPARFSGSGSGTEFTLTISSLQSEDFAVYYCQQYGSSPITFGQGTKVEIK
B14: MAdCAM antibody Table 1 clone 29 (scFv)
scFv: QVQLVQSGAEVKKPGASVKVSCKASGYTFTSYYMHWVRQAPGQGLEWMAWMNPNSGNTGYAQKFQGRVTMTRDTSTSTVYMELSSLRSEDTAVYYCARDYDFWSGSLGYWGQGTLVTVSSGGGGSGGGGSGGGGSGGGGSDIQMTQSPSSLSASVGDRVTITCRASQGISNYLAWYQQKPGKAPKLLIYAASSLQSGVPSRFSGSGSGTDFTLTISSLQPEDFATYYCQQSYSTPWTFGQGTKVEIK
B15: MAdCAM antibody Table 1 clone 35 (scFv)
scFv: EVQLLESGGGLVQPGGSLRLSCAASGFSFSSYTMNWVRQAPGKGLEWVSFITSSSRTIYYADSVKGRFTISRDNSKNTLYLQMNSLRAEDTAVYYCARDRRGDYGDSWYFDLWGRGTLVTVSSGGGGSGGGGSGGGGSGGGGSEIVMTQSPATLSVSPGERATLSCRASQSVRNYLAWYQQKPGQAPRLLIYGASTRATGIPARFSGSGSGTEFTLTISSLQSEDFAVYYCQQYGSSPLTFGGGTKVEIK
B16: MAdCAM antibody Table 1 clone 38 (scFv)
scFv: EVQLLESGGGLVQPGGSLRLSCAASGFTFGSYSMSWVRQAPGKGLEWVSAIGTGGGTYYADSVKGRFTISRDNSKNTLYLQMNSLRAEDTAVYYCAKGTPYYYYYGMDVWGQGTMVTVSSGGGGSGGGGSGGGGSGGGGSDIQMTQSPSSLSASVGDRVTITCRASQPLSNWLAWYQQKPGKAPKLLIYAASSLQSGVPSRFSGSGSGTDFTLTISSLQPEDFATYYCQQAISFPLTFGGGTKVEIK
B17: MAdCAM antibody Table 1 clone 32 (scFv)
scFv: QVQLVQSGAEVKKPGASVKVSCKASGYTLTDYYMHWVRQAPGQGLEWMGIINPSGGSTSYAQKFQGRVTMTRDTSTSTVYMELSSLRSEDTAVYYCAREEYSSSSGYFDYWGQGTLVTVSSGGGGSGGGGSGGGGSGGGGSDIQMTQSPSSLSASVGDRVTITCRASQGISSWLAWYQQKPGKAPKLLIYAASSLQSGVPSRFSGSGSGTDFTLTISSLQPEDFATYYCQQSYSTPLTFGQGTKVEIK

For the first experiment, the target named is T1, mouse MAdCAM expressed on cells. Nature of the experiment: cell binding.
For the molecule B1, the binding result is listed as “no binding”.

Regarding B2, the binding result is reported as “no binding”.

B3: the binding result was “no binding”.

In the case of B4, the binding result is on record as “no binding”.

Regarding B5, the binding result is given as “no binding”.

On to B6, for which the binding result is reported as “no binding”.

Take B7: the binding result is given as “no binding”.

B8: the binding result is “no binding”.

B9: the binding result is “no binding”.

With B10, the binding result is recorded as “no binding”.

For the molecule B11, the binding result is “no binding”.

In the case of B12, the binding result is recorded as “no binding”.

With B13, the binding result is reported as “no binding”.

Take B14: the binding result is given as “no binding”.

In the case of B15, the binding result was “no binding”.

For the molecule B16, the binding result is “no binding”.

As to B17, the binding result is on record as “no binding”.

Another experiment has as its target T2, human MAdCAM expressed on cells. The experiment is described as follows: cell binding.
With B1, the binding result is “binds”.

B2: the binding result is recorded as “binds”.

Consider B3, for which the binding result is “binds”.

For the molecule B4, the binding result was “binds”.

On to B5, for which the binding result is reported as “binds”.

Turning to B6, the binding result is on record as “binds”.

With B7, the binding result is reported as “binds”.

As to B8, the binding result is “binds”.

For B9, the binding result is “binds”.

Turning to B10, the binding result is listed as “binds”.

On to B11, for which the binding result is “binds”.

For the molecule B12, the binding result is given as “binds”.

Consider B13, for which the binding result was “binds”.

B14: the binding result was “binds”.

With B15, the binding result was “binds”.

Consider B16, for which the binding result is given as “binds”.

In the case of B17, the binding result is reported as “binds”.
